Experimental data as given in paper PMC2709577.
Read-outs that look alike come from different tables or passages of the source.

Tests used:
Assay in all cases: nanopore rupture with qPCR
[1] = target: T1, EcoRI restriction endonuclease (UniProt P00642 1-277)
[2] = target: T1, EcoRI restriction endonuclease; remark: listed apart in the source
[3] = target: T1, EcoRI restriction endonuclease; remark: listed apart in the source

T1 sequence (P00642 whole entry): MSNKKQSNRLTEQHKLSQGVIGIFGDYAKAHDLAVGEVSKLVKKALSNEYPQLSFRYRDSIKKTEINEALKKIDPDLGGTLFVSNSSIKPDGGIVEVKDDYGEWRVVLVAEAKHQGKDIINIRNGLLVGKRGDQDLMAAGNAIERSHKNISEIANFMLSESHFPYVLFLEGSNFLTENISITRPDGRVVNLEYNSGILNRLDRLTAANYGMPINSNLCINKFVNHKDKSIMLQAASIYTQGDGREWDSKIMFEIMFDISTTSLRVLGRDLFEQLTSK

| Binder | binding signal [1] | binding signal [2] | binding signal [3] |
| --- | --- | --- | --- |
| 105 bp cognate TGAATTC (dsDNA) DNA 1: TAAGTTGGGTAACGCCAGGGTTTTCCCAGTCACGACGTTGTAAAACGACGGCCAGTGAATTCGAGCTCGGTACCCGGGGATCCTCTAGAGTCGACCTGCAGGCAT DNA 2: ATGCCTGCAGGTCGACTCTAGAGGATCCCCGGGTACCGAGCTCGAATTCACTGGCCGTCGTTTTACAACGTCGTGACTGGGAAAACCCTGGCGTTACCCAACTTA | 2.16 ± 0.08 V (threshold voltage) | 2.08 ± 0.03 V (threshold voltage) | 2.09 ± 0.06 V (threshold voltage) |
| 105 bp TGCATTC (second base A to C) (dsDNA) DNA 1: TAAGTTGGGTAACGCCAGGGTTTTCCCAGTCACGACGTTGTAAAACGACGGCCAGTGCATTCGAGCTCGGTACCCGGGGATCCTCTAGAGTCGACCTGCAGGCAT DNA 2: ATGCCTGCAGGTCGACTCTAGAGGATCCCCGGGTACCGAGCTCGAATGCACTGGCCGTCGTTTTACAACGTCGTGACTGGGAAAACCCTGGCGTTACCCAACTTA | 0.87 ± 0.06 V (threshold voltage) | 0.93 ± 0.05 V (threshold voltage) | 0.93 ± 0.06 V (threshold voltage) |
| 105 bp AGAATTC (5' flank T to A) (dsDNA) DNA 1: TAAGTTGGGTAACGCCAGGGTTTTCCCAGTCACGACGTTGTAAAACGACGGCCAGAGAATTCGAGCTCGGTACCCGGGGATCCTCTAGAGTCGACCTGCAGGCAT DNA 2: ATGCCTGCAGGTCGACTCTAGAGGATCCCCGGGTACCGAGCTCGAATTCTCTGGCCGTCGTTTTACAACGTCGTGACTGGGAAAACCCTGGCGTTACCCAACTTA | 1.62 ± 0.07 V (threshold voltage) | 1.72 ± 0.05 V (threshold voltage) | 1.84 ± 0.05 V (threshold voltage) |
| 105 bp TGACTTC (third base A to C) (dsDNA) DNA 1: TAAGTTGGGTAACGCCAGGGTTTTCCCAGTCACGACGTTGTAAAACGACGGCCAGTGACTTCGAGCTCGGTACCCGGGGATCCTCTAGAGTCGACCTGCAGGCAT DNA 2: ATGCCTGCAGGTCGACTCTAGAGGATCCCCGGGTACCGAGCTCGAAGTCACTGGCCGTCGTTTTACAACGTCGTGACTGGGAAAACCCTGGCGTTACCCAACTTA | 1.11 ± 0.08 V (threshold voltage) | 1.08 ± 0.04 V (threshold voltage) | 1.02 ± 0.08 V (threshold voltage) |
| 105 bp TTAATTC (first base G to T) (dsDNA) DNA 1: TAAGTTGGGTAACGCCAGGGTTTTCCCAGTCACGACGTTGTAAAACGACGGCCAGTTAATTCGAGCTCGGTACCCGGGGATCCTCTAGAGTCGACCTGCAGGCAT DNA 2: ATGCCTGCAGGTCGACTCTAGAGGATCCCCGGGTACCGAGCTCGAATTAACTGGCCGTCGTTTTACAACGTCGTGACTGGGAAAACCCTGGCGTTACCCAACTTA | 1.17 ± 0.09 V (threshold voltage) | 1.18 ± 0.06 V (threshold voltage) | 1.16 ± 0.03 V (threshold voltage) |
